Measurements taken from US7632507B2, “Synovial cell protein” (St. Marianna University School of Medicine, priority 2000, dated 2009).

Assays:
[35S]HA-Synoviolin-HAHA = biological target: T1, [35S]HA-Synoviolin-HAHA (Homo sapiens, UniProt Q86TM6); assay: Binding of Synoviolin to SL on nylon membrane with [35S]-labeled probe; conditions: protein transferred to nylon membrane, 2 hours at room temperature
T1 construct: Expression of Full-Length Synoviolin Recombinant Protein in E. coli; made in house; host or cells: cell-free in vitro translation (TNT-coupled Translation System, Promega) from pcDNA3-HA-synoviolin-HAHA
Experimental: The SL cDNA was inserted into a pGEX vector in the same manner as in Example 3 to prepare GST-SL fusion protein, and the GST-SL (500 ng) was applied to 10% SDS-PAGE along with GST (1 μg) as a control. After SDS-PAGE, it was transferred to a nylon membrane by electroblotting. This nylon membrane was denatured for 1 hour at room temperature with 50 mM Tris-HCl (pH 8.0) containing 6M guanidine hydrochloride and 5 mM 2-mercaptoethanol, and regenerated overnight at 4° C. in 50 mM Tris-HCl (pH 8.0) containing 5 mM 2-mercaptoethanol and 0.05% Tween 20. The regenerated nylon membrane was treated with blocking buffer [10 mM Tris-HCl (pH 8.0), 5% skim milk, 0.1% Triton X-100, 150 mM NaCl, 1 mM EDTA, 5 mM MgCl2, 1 mM DTT, 5% glycerol, protease inhibitor (complete, Boehringer Mannheim)] and washed in blocking buffer (same as above, except for 0.5% skim milk). […] This nylon membrane was washed in 10 mM Tris-HCl (pH 8.0), 0.5% skim milk, 0.1% Triton X-100, 150 mM NaCl, 1 mM EDTA, 5 mM MgCl2, 1 mM DTT, and protease inhibitor (complete, Boehringer Mannheim), and its radioactivity was detected with an image analyzer (BAS2000, Fujix). […]

[1] = tested on: anti-synovial cell anti-serum; assay: Antibody absorption test in synovial tissue staining; type: binding, rabbit; conditions: 2.0 mg/mL added to anti-serum
Experimental: The staining of RA patient-derived synovial tissue was performed by fixing synovial tissue upon glass slides by the ordinary method. A sample subjected to 30-minute blocking with 1% BSA was allowed to undergo immune reaction for 60 minutes at room temperature with anti-synovial cell anti-serum diluted 100 times with 1% BSA. After reaction, the sample was washed with PBS and then allowed to undergo immune reaction using HRP-labeled anti-rabbit IgG antibodies as the secondary antibody. Confirmation of the antigen in the immune reaction with anti-synovial cell anti-serum was performed by the coloring of 3,3′-diaminobenzidine tetrahydrochloride based on HRP activity. In the same manner as in the aforementioned Western blotting, GST-partial Synoviolin fusion protein was used to perform an anti-synovial cell anti-serum absorption test with respect to synovial tissue staining. Tissue staining was performed by adding 2.0 mg/mL of GST-partial Synoviolin fusion protein or GST (2.0 mg/mL) to anti-synovial cell anti-serum.

[2] = tested on: anti-synovial cell anti-serum; assay: Antibody absorption experiment in Western blotting of cell lysates; type: binding, rabbit; conditions: RA patient-derived synovial cells, 2.0 mg/mL
Experimental: First, the various cells used as specimens were solubilized in 1% NP-40 to prepare cell lysates. Each of the cell lysates was treated with 25 mM Tris-HCl (pH 6.8), 0.25% sodium dodecyl sulfate (SDS), 0.05% mercaptoethanol and 0.1% glycerol, and then separated with 8% SDS polyacrylamide electrophoresis (SDS-PAGE). After SDS-PAGE, protein derived from the various cells was transferred to a nitrocellulose (NC) membrane by electroblotting. On this NC membrane, anti-synovial cell anti-serum was diluted 1000 times with Tris buffered saline (TBS) containing 2.0 mg/mL GST-partial Synoviolin fusion protein and 5% skim milk, and subjected to immune reaction for 60 minutes at room temperature. In addition, as negative controls, an experiment wherein the same antibody solution is reacted with the NC membrane, and an experiment wherein the GST-partial Synoviolin fusion protein in the antibody solution is replaced with GST alone were performed at the same time. After the reaction, the NC membrane was washed with 0.1% Tween 20/TBS, subjected to an immune reaction for 60 minutes at room temperature with horseradish peroxidase (HRP) labeled anti-rabbit IgG antibodies as the secondary antibodies, and washed with 0.1% Tween 20/TBS, and the target antigen was detected by detecting HRP activity. […]

[3] = tested on: RA patient-derived synovial cells; assay: MTT assay of synovial cell hyperplasia; type: cell-based, human; conditions: 1 μM, three days of culture, 10%-FCS/DMEM, 37° C., 5% CO2
Experimental: The RA patient-derived synovial cells prepared in Example 1 were used to prepare 96 well plates so that there were 5×10^3 cells/well, and GST or GST-partial Synoviolin was added to the cell supernatant so that the final concentration became 0.01 to 1 μM. After three days of culture, 3-(4,5-dimethyl-2-thiazolyl)-2,5-diphenyl-2H-tetrazolium bromide (MTT)/PBS was added to the cell supernatant, and it was cultured for 3 hours under conditions of 37° C. and 5% CO2. After culturing, the cell supernatant was removed, crystals of MTT formazan were dissolved with dimethyl sulfoxide, and absorbance measurement was performed (Journal of Immunological Methods, 65, 55, 1983).

[4] = tested on: anti-synovial cell anti-serum; assay: Antibody absorption in fluorescent immunostaining of synovial cells; type: binding, rabbit
Experimental: Immunostaining was performed by fixing synovial cells upon glass slides by the ordinary method, and immunostaining was performed using the anti-synovial cell anti-serum of Example 1. A sample subjected to 30-minute blocking with 1% bovine serum albumin (BSA) was allowed to undergo immune reaction for 60 minutes at room temperature with anti-synovial cell anti-serum diluted 100 times with 1% BSA. In addition, along with observation with anti-serum, experiments were also performed using anti-synovial cell antibodies purified from this anti-serum. Purified anti-synovial cell antibodies were prepared by immunoaffinity purification using GST-partial Synoviolin fusion protein as a ligand. The ligand used was a fusion protein expressed after the GST-fusion protein expression vector pGEX-5X-3 containing the 1799 bp synoviolin gene up to No. 1233-3031 of SEQ ID NO: 1 was transformed into BL21. A Glutathione Sepharose column was produced by the method of the Pharmacia Corp, to prepare a GST-partial syno-GS column. As a control for the case where purified anti-synovial cell antibodies were used, an anti-GST antibody obtained by the immunoaffinity purification of anti-serum in the same manner where GST was used as the ligand was used. […]

T1 sequence (Q86TM6 whole entry E545G): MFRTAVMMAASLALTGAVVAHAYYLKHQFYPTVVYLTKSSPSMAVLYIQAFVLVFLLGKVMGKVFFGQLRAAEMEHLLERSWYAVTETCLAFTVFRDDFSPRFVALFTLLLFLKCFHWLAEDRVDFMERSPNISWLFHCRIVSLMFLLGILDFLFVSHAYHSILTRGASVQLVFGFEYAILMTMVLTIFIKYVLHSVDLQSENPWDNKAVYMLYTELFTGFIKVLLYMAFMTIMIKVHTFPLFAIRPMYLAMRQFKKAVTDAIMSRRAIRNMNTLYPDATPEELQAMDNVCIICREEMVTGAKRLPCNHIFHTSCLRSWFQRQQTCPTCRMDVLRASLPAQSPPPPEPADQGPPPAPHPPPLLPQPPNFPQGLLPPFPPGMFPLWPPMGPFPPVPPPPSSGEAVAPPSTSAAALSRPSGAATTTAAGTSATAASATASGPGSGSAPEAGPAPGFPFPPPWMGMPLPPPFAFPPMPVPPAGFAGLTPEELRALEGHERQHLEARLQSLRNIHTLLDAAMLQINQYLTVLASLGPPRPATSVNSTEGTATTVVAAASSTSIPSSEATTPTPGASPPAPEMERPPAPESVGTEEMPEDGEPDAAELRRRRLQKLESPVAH

glutathione S-transferase [GST, reference compound]
binding to [35S]HA-Synoviolin-HAHA ([35S]HA-Synoviolin-HAHA): not observed

B1: GST-SL: GST fusion protein of Synoviolin ligand (SL), thought to be the same protein as S1-5 (protein)
chain: QDTEETITYTQCTDGYEWDPVRQQCKDIDECDIVPDACKGGMKCVNHYGGYLCLPKTAQIIVNNEQPQQETQPAEGTSGATTGVVAASSMATSGVLPGGGFVASAAAVAGPEMQTGRNNFVIRRNPADPQRIPSNPSHRIQCAAGYEQSEHNVCQDIDECTAGTHNCRADQVCINLRGSFACQCPPGYQKRGEQCVDIDECTIPPYCHQRCVNTPGSFYCQCSPGFQLAANNYTCVDINECDASNQCAQQCYNILGSFICQCNQGYELSSDRLNCEDIDECRTSSYLCQYQCVNEPGKFSCMCPQGYQVVRSRTCQDINECETTNECREDEMCWNYHGGFRCYPRNPCQDPYILTPENRCVCPVSNAMCRELPQSIVYKYMSIRSDRSVPSDIFQIQATTIYANTINTFRIKSGNENGEFYLRQTSPVSAMLVLVKSLSGPREHIVDLEMLTVSSIGTFRTSSVLRLTIIVGPFSF
modifications: left off: a dimerising Fc or GST
binding to [35S]HA-Synoviolin-HAHA ([35S]HA-Synoviolin-HAHA): observed

B2: GST-partial Synoviolin: GST fusion protein of a portion of Synoviolin (cDNA 1799 bp; SEQ ID NO: 1, No. 1233-3031) expressed in E. coli (protein)
chain: PPVPPPPSSGEAVAPPSTSAAALSRPSGAATTTAAGTSATAASATASGPGSGSAPEAGPAPGFPFPPPWMGMPLPPPFAFPPMPVPPAGFAGLTPEELRALEGHERQHLEARLQSLRNIHTLLDAAMLQINQYLTVLASLGPPRPATSVNSTEGTATTVVAAASSTSIPSSEATTPTPGASPPAPEMERPPAPESVGTEEMPEDGEPDAAELRRRRLQKLESPVAH
modifications: left off: a dimerising Fc or GST
staining of synovial tissue with anti-synovial cell anti-serum [1]: weakened | immune reaction of anti-synovial cell anti-serum to the 220 kDa protein [2]: blocked | immune reaction of anti-synovial cell anti-serum to the approximately 140 kDa and approximately 185 kDa proteins [2]: partially blocked | RA patient-derived synovial cell hyperplasia [3]: significantly suppressed | immune reaction of anti-synovial cell anti-serum with RA patient-derived synovial cells [4]: blocked
